These results are taken from article PMC7082139, “Molecular Mechanisms of Phosphate Stress Activation of Pseudomonas aeruginosa Quorum Sensing Systems”.

In one data set the target is T1, PhoB (Pseudomonas aeruginosa PAO1, UniProt P23620 1-229).
T1 sequence: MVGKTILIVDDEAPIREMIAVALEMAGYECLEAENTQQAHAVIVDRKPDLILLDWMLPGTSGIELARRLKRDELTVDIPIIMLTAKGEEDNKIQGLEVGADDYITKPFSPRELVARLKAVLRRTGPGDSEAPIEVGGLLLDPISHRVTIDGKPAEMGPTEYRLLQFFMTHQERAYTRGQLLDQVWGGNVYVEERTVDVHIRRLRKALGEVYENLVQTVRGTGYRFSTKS
Nature of the data set: EMSA. As to conditions: protein: recombinant; tags: C-terminal His (pET-28b, NcoI-XhoI); chain copies: 2; label: biotin 3'-end; blunt. Background: In EMSA bound probe runs differently from free probe, usually more slowly.

A further data set addresses PhoB(D54A) (Pseudomonas aeruginosa PAO1, UniProt P23620 1-229, D54A). Nature of the data set: EMSA. As to conditions: protein: recombinant; tags: C-terminal His (pET-28b); chain copies: 2; label: biotin 3'-end; blunt.
A further data set concerns the target RsaL (Pseudomonas aeruginosa PAO1, UniProt Q9X7H4 1-80). Nature of the data set: EMSA; RsaL-specific shift; displaced by increasing PhoB (competes at 3 uM). Conditions: protein: recombinant; tags: C-terminal His (pET-28b); chain copies: 2; label: biotin 3'-end; blunt.

B1: P2+P3 (dsDNA)
DNA 1: GTTATAAAATTATGAAATTTGCATAAATTCTTCAGCTTCCTATTTGGAGGAAGTGAAG
DNA 2: CTTCACTTCCTCCAAATAGGAAGCTGAAGAATTTATGCAAATTTCATAATTTTATAAC
Consider B1, for which the binding result with PhoB is listed as “binds”.

B2: lasI promoter (dsDNA)
DNA 1: TGCTCTGATCTTTTCGGACGTTTCTTCGAGCCTAGCAAGGGTCCGGGTTCACCGAAATCTATCTCATTTGCTAGTTATAAAATTATGAAATTTGCATAAATTCTTCAGCTTCCTATTTGGAGGAAGTGAAG
DNA 2: CTTCACTTCCTCCAAATAGGAAGCTGAAGAATTTATGCAAATTTCATAATTTTATAACTAGCAAATGAGATAGATTTCGGTGAACCCGGACCCTTGCTAGGCTCGAAGAAACGTCCGAAAAGATCAGAGCA
With B2, the binding result with PhoB, in the data set with PhoB(D54A) and in the data set with RsaL was “binds” in each case.

B3: P3 (downstream of pho box) (dsDNA)
DNA 1: TTGCATAAATTCTTCAGCTTCCTATTTGGAGGAAGTGAAG
DNA 2: CTTCACTTCCTCCAAATAGGAAGCTGAAGAATTTATGCAA
In the case of B3, in the data set with PhoB, the binding result is given as “no binding”.

B4: P1 (upstream of pho box) (dsDNA)
DNA 1: TAGCAAGGGTCCGGGTTCACCGAAATCTATCTCATTTGCTA
DNA 2: TAGCAAATGAGATAGATTTCGGTGAACCCGGACCCTTGCTA
For the molecule B4, the binding result with PhoB was “no binding”.

B5: P1+P2 (dsDNA)
DNA 1: TAGCAAGGGTCCGGGTTCACCGAAATCTATCTCATTTGCTAGTTATAAAATTATGAAAT
DNA 2: ATTTCATAATTTTATAACTAGCAAATGAGATAGATTTCGGTGAACCCGGACCCTTGCTA
For the molecule B5, in the data set with PhoB, the binding result is “binds”.
